Values quoted from earlier work in paper PMC10770464.

Key:
[1] = molecular target: Plasminogen kringle 4 (Homo sapiens) (UniProt P00747)
[2] = molecular target: Apolipoprotein A (Homo sapiens) (UniProt P08519)
[3] = molecular target: High mobility group box-1 (Homo sapiens) (UniProt P09429)
[4] = molecular target: Plasminogen (Homo sapiens) (UniProt P00747)
[5] = molecular target: Tissue plasminogen activator (Homo sapiens) (UniProt P00750); assay: ELISA
[6] = molecular target: Hepatocyte growth factor (Homo sapiens) (UniProt P14210); assay: ELISA
Chain of UniProt P14210 (P14210 495-728): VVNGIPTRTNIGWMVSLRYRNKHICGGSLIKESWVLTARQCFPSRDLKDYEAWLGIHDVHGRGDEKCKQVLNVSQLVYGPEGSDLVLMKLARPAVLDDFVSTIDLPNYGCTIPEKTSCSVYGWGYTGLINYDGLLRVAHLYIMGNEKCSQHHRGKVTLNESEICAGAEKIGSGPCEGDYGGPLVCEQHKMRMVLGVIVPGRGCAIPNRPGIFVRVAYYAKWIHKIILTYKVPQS

Chain of UniProt P09429 (P09429 whole entry): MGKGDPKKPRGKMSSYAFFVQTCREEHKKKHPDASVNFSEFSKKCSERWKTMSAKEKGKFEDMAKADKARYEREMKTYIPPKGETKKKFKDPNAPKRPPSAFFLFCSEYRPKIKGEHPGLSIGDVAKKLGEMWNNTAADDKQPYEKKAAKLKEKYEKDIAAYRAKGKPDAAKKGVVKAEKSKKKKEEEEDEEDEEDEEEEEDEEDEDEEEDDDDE
Chain of UniProt P00750 (P00750 36-562): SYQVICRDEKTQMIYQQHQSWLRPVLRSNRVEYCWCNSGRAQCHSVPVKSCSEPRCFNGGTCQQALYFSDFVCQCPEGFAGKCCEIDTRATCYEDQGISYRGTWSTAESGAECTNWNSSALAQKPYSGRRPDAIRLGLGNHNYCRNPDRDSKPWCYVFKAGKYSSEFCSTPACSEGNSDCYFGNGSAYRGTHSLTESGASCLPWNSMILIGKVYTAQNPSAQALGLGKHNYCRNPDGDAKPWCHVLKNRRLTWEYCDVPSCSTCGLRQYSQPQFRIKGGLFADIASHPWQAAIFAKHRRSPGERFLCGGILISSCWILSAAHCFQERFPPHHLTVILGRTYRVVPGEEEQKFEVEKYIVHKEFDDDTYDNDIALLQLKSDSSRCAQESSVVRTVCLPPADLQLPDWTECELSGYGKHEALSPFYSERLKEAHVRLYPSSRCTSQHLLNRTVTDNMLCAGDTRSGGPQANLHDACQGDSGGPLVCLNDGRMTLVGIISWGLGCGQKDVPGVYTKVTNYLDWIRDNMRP
Chain of UniProt P08519 (P08519 20-2040): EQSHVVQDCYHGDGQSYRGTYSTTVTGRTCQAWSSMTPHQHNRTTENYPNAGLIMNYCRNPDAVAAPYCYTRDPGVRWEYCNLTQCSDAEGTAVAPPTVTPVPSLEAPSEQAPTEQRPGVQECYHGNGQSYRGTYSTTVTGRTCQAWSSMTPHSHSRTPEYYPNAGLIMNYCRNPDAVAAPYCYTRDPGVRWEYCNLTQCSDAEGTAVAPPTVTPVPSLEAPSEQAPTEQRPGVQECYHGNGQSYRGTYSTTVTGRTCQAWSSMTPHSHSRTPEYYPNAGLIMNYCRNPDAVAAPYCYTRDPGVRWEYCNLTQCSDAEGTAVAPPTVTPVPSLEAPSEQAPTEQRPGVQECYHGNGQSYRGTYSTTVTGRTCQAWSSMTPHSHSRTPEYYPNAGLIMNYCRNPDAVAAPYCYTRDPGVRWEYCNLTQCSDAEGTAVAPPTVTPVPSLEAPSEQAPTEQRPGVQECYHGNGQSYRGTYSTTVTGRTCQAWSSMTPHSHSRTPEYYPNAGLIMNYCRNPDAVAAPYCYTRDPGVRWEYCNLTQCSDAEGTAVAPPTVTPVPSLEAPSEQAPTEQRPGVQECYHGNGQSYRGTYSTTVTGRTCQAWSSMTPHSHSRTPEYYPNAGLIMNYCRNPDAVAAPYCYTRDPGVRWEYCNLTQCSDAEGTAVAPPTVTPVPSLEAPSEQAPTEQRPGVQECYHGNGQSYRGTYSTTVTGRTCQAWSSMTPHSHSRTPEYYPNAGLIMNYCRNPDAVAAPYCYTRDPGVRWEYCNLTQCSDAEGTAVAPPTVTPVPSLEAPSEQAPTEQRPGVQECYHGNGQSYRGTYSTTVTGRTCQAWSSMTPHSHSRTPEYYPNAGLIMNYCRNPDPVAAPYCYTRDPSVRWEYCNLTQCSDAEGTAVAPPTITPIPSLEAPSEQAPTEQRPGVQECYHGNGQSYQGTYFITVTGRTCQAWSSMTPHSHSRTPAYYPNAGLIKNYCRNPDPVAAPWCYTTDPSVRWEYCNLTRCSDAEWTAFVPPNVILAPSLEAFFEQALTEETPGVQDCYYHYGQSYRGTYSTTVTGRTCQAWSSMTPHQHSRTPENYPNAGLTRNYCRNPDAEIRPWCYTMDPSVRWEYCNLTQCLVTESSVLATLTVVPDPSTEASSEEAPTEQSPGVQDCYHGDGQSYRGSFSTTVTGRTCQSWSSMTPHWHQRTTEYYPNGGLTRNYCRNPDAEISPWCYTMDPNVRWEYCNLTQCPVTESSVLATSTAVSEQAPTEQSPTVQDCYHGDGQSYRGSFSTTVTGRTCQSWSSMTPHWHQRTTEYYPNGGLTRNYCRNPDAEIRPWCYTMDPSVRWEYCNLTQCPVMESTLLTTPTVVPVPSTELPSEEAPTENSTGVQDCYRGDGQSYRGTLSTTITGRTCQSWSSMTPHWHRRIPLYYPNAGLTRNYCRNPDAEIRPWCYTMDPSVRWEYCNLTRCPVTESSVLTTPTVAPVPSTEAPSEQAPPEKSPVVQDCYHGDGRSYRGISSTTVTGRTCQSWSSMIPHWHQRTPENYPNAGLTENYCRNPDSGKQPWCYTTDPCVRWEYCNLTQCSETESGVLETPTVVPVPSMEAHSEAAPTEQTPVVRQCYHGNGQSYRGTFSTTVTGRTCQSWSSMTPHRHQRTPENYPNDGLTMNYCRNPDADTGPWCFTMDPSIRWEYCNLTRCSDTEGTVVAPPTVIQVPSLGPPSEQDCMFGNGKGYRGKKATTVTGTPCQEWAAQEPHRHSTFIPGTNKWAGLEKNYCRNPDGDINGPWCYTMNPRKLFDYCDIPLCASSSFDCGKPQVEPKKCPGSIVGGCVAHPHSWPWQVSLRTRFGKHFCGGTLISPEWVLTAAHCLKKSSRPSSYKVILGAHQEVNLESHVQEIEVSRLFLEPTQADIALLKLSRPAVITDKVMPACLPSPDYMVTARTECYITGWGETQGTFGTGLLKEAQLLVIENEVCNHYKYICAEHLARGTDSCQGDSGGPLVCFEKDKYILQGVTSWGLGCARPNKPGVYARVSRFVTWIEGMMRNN

Substance: Tetranectin (from UniProt P05452)
- Kd [1]: 25000 nM
- Kd [2]: 13 nM
- Kd [3]: 2.05 nM
- Kd [4]: 400 nM
- Kd [5]: 290 nM
- Kd [6]: 490 nM
